Literature values as cited in patent publication US7547701B2, “Haloalkyl containing compounds as cysteine protease inhibitors” (Virobay, Inc., priority 2003, dated 2009).

Settings: in clinical trials

Substance: OKT3: murine monoclonal antibody directed towards CD-3 domain of activated T-cells
- patients administered OKT3 that produce antibodies versus the therapy: 20-40%
